# From patent US20190271021A1
# Target: human TrkB on CHO cells (CHO-K1-hTrkB/pSRE-Luc) (human) (UniProt Q16620)
# Experiment: cell-based or functional assay
# Chain of human TrkB on CHO cells (CHO-K1-hTrkB/pSRE-Luc) (human) (Q16620 32-822): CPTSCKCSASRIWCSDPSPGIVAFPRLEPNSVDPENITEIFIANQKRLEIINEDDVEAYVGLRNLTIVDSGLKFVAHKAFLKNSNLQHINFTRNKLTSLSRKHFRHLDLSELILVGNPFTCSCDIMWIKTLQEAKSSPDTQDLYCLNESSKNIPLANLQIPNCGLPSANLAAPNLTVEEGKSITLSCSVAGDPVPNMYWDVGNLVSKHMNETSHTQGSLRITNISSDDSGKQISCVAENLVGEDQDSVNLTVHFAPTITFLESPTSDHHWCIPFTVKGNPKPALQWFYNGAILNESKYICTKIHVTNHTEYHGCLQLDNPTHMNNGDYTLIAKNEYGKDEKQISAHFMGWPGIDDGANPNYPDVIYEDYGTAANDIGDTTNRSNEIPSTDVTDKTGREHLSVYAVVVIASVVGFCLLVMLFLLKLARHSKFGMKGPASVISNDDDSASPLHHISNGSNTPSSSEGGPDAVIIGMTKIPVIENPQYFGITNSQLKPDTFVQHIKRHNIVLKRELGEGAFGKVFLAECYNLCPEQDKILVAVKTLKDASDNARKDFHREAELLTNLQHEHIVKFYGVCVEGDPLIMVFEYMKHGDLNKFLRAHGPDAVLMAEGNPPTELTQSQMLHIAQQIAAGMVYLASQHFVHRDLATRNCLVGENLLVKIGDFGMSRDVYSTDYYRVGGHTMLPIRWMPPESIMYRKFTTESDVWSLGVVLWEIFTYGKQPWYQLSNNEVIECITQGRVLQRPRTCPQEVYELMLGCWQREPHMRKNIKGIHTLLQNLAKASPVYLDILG
"relative BDNF activity in TrkB luciferase assay, EC50 [%]","BDNF activity in TrkBluciferase assay, EC50 [% or nM] [%]",Substance
60,–,"complex of pre-pro(IgA)-BDNF(-RGR)_opsin(L)-(G3D)4-G3S_VH<TfR>8D3-CH1-His6, anti-transferrin receptor antibody light chain and not-fused pre-pro(IgA)-BDNF(-RGR)-opsin(L)-T7-His6"
80,–,"complex of pre-pro(IgA)-BDNF(-RGR)_opsin(L)-(G3D)4-G3S_VH<TfR>8D3-CH1-His6, anti-transferrin receptor antibody light chain and not-fused pre-pro(IgA)-BDNF(-RGR; R81N)-His6 (from UniProt P23560 1-244)"

# Second part, the substance before the results:
Substance,"relative BDNF activity in TrkB luciferase assay, EC50 [%]","BDNF activity in TrkBluciferase assay, EC50 [% or nM] [%]"
"complex of pre-pro(IgA)-BDNF(-RGR; R81N)_opsin(L)-(G3D)4-G3S_VH<TfR>8D3-CH1-His6, anti-transferrin receptor antibody light chain and not-fused pre-pro(IgA)-BDNF(-RGR; R81N)-His6 (from UniProt P23560 1-244)",110,–
pre-pro(IgA)-BDNF(-RGR)_opsin(L)-(G3D)4-G3S_VH<TfR>8D3-CH1-His6 with chimeric rat/human anti-transferrin receptor antibody light chain,200,–
pre-pro-BDNF(-RGR; K25N; T35N; Q79T)-T7-His6 (ligand),–,2830
